Substitutions are numbered along the chain they refer to. Like-named read-outs stand apart in the source and are kept apart here. Each block holds one binder with its values, some of them ahead of it.
Tests used:
[1] = target: T1, human mesothelin (MSLN) (human, UniProt Q13421 296-580, limits assumed); experiment: KD quoted in the text; Octet (BLI) per FIGS. 20-21
T1 construct: Antigen of the Octet KD values

[2] = target: T1, human mesothelin (MSLN); experiment: KD quoted in the FIG. 25 legend; Octet (BLI) per FIGS. 20-21
[3] = target: T2, MSLN on OVCAR8 cells (~90K MSLN antigens/cell) (UniProt Q13421 296-598); experiment: binding to OVCAR8 cells, MFI APC against mAb concentration
[4] = target: T3, MSLN on OVCAR8 cells (~90K MSLN antigens/cell) (UniProt Q13421 296-598); experiment: flow cytometry on OVCAR8 cells, 1 h at 4 C, anti-human-Fc A647 secondary
T3 construct: whole, on cells; Endogenous expression on a cancer cell line
Description: (§1) In this experiment, 50,000 OVCAR8 cells (˜90K MSLN antigens/cell) were seeded per well in a plate. Anti-human-Fc secondary (A647) was added for 30 min at 4° C., and binding was assessed via FACs. FIG. 39C depicts that the CD28×MSLN bsAbs in neither 1+1-Fab-scFv format nor the 2+1 mAb-scFv format antibodies show any significant off target binding. In this experiment, 50,000 SKOV3 cells (˜9K MSLN antigens/cell) were seeded per well in a plate. Anti-human-Fc secondary (A647) was added for 30 min at 4° C., and binding was assessed via FACs.
(§2) In order to assess the binding of MSLN×CD28 bsAbs in different formats, an experiment was conducted in which 50,000 OVCAR8 cells (˜90K MSLN antigens/cell) were seeded per well in a plate. Anti-human-Fc secondary (A647) was added for 30 min at 4° C., and binding was assessed via FACs.

[5] = target: T1, human mesothelin (MSLN); experiment: label in the legend box: nominal affinity of the MSLN binding domain (paragraph 422 calls such label values KD); method not stated on the sheet
[6] = target: T3, MSLN on OVCAR8 cells (~90K MSLN …); experiment: flow cytometry on OVCAR8 cells, 1 h at 4 C, anti-human-Fc A647 secondary; remark: listed apart in the source
Description: as §1, §2

[7] = target: T4, human CD28 (human, UniProt P10747 19-152, limits assumed); experiment: label in the legend box: nominal affinity of the CD28 binding domain (paragraph 422 calls such label values KD); method not stated on the sheet
T4 construct: also called Cluster of Differentiation 28; Tp44

[8] = target: T5, CD3; experiment: label in the legend box: nominal affinity of the CD3 binding domain; method not stated on the sheet
T5 chain 1: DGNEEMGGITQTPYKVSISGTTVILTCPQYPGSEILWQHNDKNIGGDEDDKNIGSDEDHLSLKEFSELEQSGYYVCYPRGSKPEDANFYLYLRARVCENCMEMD
T5 chain 2: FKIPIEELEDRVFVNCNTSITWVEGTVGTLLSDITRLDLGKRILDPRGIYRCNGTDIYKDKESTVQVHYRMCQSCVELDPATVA

[9] = target: T2, MSLN on OVCAR8 cells (~90K MSLN …); experiment: binding to OVCAR8 cells, MFI APC against mAb concentration; remark: listed apart in the source
[10] = target: T4, human CD28; experiment: label in the legend box: nominal affinity of the CD28 binding domain (paragraph 422 calls such label values KD); method not stated on the sheet; remark: listed apart in the source
[11] = target: T1, human mesothelin (MSLN); experiment: label in the legend box: nominal affinity of the MSLN binding domain (paragraph 422 calls such label values KD); method not stated on the sheet; remark: listed apart in the source

Kd [1]: 0.3 nM
B1: MESO-C H1_L1 (Fab, V domains shown)
VH: QVQLVQSGAEVKKPGASVKVSCKASGYTFTSYWMHWVRQAPGQGLEWMGMIHPNSDNTIYYEKFQGRVTMTVDKSISTAYMELSRLRSDDTAVYYCAIIITPVVPKFDYWGQGTLVTVSS
VL: DIVMTQSPDSLAVSLGERATINCKASHDVGTSVAWYQQKPGQSPKLLIYWASTRHTGVPDRFTGSGSGTDFTLTISSLQAEDVAVYFCQQYSSYPLTFGAGTKLEIK

Kd [2]: 3.9 nM | EC50 (read off the curve) [3]: ~0.06 µg/mL
B2: XENP32852 (bispecific antibody)
chain 1: QVQLVQSGAEVKKPGASVKVSCKASGYTFTSYWMHWVRQAPGQGLEWMGMIHPNSDNTIYYEKFQGRVTMTVDKSISTAYMELSRLRSDDTAVYYCAIIITPVVPKFDYWGQGTLVTVSSASTKGPSVFPLAPSSKSTSGGTAALGCLVKDYFPEPVTVSWNSGALTSGVHTFPAVLQSSGLYSLSSVVTVPSSSLGTQTYICNVNHKPSDTKVDKKVEPKSCDKTHTCPPCPAPPVAGPSVFLFPPKPKDTLMISRTPEVTCVVVDVKHEDPEVKFNWYVDGVEVHNAKTKPREEEYNSTYRVVSVLTVLHQDWLNGKEYKCKVSNKALPAPIEKTISKAKGQPREPQVYTLPPSREEMTKNQVSLTCDVSGFYPSDIAVEWESDGQPENNYKTTPPVLDSDGSFFLYSKLTVDKSRWEQGDVFSCSVMHEALHNHYTQKSLSLSPGK
chain 2: QVQLVQSGAEVKKPGASVKVSCKASGYTFTSYWMHWVRQAPGQGLEWMGMIHPNSDNTIYYEKFQGRVTMTVDKSISTAYMELSRLRSDDTAVYYCAIIITPVVPKFDYWGQGTLVTVSSASTKGPSVFPLAPSSKSTSGGTAALGCLVKDYFPEPVTVSWNSGALTSGVHTFPAVLQSSGLYSLSSVVTVPSSSLGTQTYICNVNHKPSNTKVDKKVEPKSCGGGGSGGGGSQAVVTQEPSLTVSPGGTVTLTCGSSTGAVTTSNYANWVQQKPGKSPRGLIGGTNKRAPGVPARFSGSLLGGKAALTISGAQPEDEADYYCALWYSNHWVFGGGTKLTVLGKPGSGKPGSGKPGSGKPGSEVQLVESGGGLVQPGGSLRLSCAASGFTFSTYAMNWVRQAPGKGLEWVGRIRSKANNYATYYADSVKGRFTISRDDSKNTLYLQMNSLRAEDTAVYYCVRHGNFGDSYVSWFAYWGQGTLVTVSSGGGGSGGGGSKTHTCPPCPAPPVAGPSVFLFPPKPKDTLMISRTPEVTCVVVDVKHEDPEVKFNWYVDGVEVHNAKTKPREEQYNSTYRVVSVLTVLHQDWLNGKEYKCKVSNKALPAPIEKTISKAKGQPREPQVYTLPPSREQMTKNQVKLTCLVKGFYPSDIAVEWESNGQPENNYKTTPPVLDSDGSFFLYSKLTVDKSRWQQGNVFSCSVMHEALHNHYTQKSLSLSPGK
chain 3: DIVMTQSPDSLAVSLGERATINCKASHDVGTSVAWYQQKPGQSPKLLIYWASTRHTGVPDRFTGSGSGTDFTLTISSLQAEDVAVYFCQQYYSYPLTFGAGTKLEIKRTVAAPSVFIFPPSDEQLKSGTASVVCLLNNFYPREAKVQWKVDNALQSGNSQESVTEQDSKDSTYSLSSTLTLSKADYEKHKVYACEVTHQGLSSPVTKSFNRGEC

EC50 (read off the curve) [4]: ~4 µg/mL | Kd [5]: 9 nM | EC50 (read off the curve) [6]: ~4 µg/mL | Kd [7]: 180 nM
B3: XENP39566 (bispecific antibody)
heavy: B2 chain 1 with M50W, M430L, N436S
scFv-Fc: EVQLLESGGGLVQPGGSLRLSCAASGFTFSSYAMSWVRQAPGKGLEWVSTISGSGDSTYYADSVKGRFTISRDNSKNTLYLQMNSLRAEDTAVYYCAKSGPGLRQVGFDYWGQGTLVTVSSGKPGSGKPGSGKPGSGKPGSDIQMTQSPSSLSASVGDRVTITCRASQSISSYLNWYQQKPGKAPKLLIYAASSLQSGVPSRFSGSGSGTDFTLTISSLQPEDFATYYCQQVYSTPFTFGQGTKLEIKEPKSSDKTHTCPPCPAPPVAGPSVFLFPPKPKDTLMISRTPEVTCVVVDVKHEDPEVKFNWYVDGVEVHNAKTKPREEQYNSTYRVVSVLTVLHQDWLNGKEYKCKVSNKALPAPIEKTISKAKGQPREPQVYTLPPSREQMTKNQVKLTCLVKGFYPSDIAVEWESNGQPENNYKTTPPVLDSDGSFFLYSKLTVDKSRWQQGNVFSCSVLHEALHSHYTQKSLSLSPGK
light: B2 chain 3 with Y92S
notes: also called XENP39566 MSLN (9 nM) x CD28 (180 nM) 1+1 Fab-scFv-Fc

Kd [2]: 3.9 nM | EC50 (read off the curve) [3]: ~0.06 µg/mL
B4: XENP32853 (bispecific antibody)
chain 1: B2 chain 1
chain 2: QVQLVQSGAEVKKPGASVKVSCKASGYTFTSYWMHWVRQAPGQGLEWMGMIHPNSDNTIYYEKFQGRVTMTVDKSISTAYMELSRLRSDDTAVYYCAIIITPVVPKFDYWGQGTLVTVSSASTKGPSVFPLAPSSKSTSGGTAALGCLVKDYFPEPVTVSWNSGALTSGVHTFPAVLQSSGLYSLSSVVTVPSSSLGTQTYICNVNHKPSNTKVDKKVEPKSCGGGGSGGGGSQAVVTQEPSLTVSPGGTVTLTCGSSTGAVTTSNYANWVQQKPGKSPRGLIGGTNKRAPGVPARFSGSLLGGKAALTISGAQPEDEADYYCALWYSNHWVFGGGTKLTVLGKPGSGKPGSGKPGSGKPGSEVQLVESGGGLVQPGGSLRLSCAASGFTFSTYAMNWVRQAPGKGLEWVGRIRSKYNNYATYYADSVKGRFTISRDDSKNTLYLQMNSLRAEDTAVYYCVRHGNFGDEYVSWFAYWGQGTLVTVSSEPKSSDKTHTCPPCPAPPVAGPSVFLFPPKPKDTLMISRTPEVTCVVVDVKHEDPEVKFNWYVDGVEVHNAKTKPREEQYNSTYRVVSVLTVLHQDWLNGKEYKCKVSNKALPAPIEKTISKAKGQPREPQVYTLPPSREQMTKNQVKLTCLVKGFYPSDIAVEWESNGQPENNYKTTPPVLDSDGSFFLYSKLTVDKSRWQQGNVFSCSVMHEALHNHYTQKSLSLSPGK
chain 3: B2 chain 3

Kd [2]: 9.2 nM | Kd [8]: 30 nM
B5: XENP32947 (bispecific antibody)
chain 1: B2 chain 1 with M50W
chain 2: B2 chain 2 with M50W
chain 3: B2 chain 3 with Y92S

Kd [2]: ~12.8 nM | EC50 (read off the curve) [9]: ~0.05 µg/mL
B6: XENP32751 (bispecific antibody)
chain 1: B2 chain 1
chain 2: B2 chain 2
chain 3: B2 chain 3 with S32Y, Y92S

Kd [10]: 37 nM | Kd [11]: 90 nM
B7: XENP39569 (bispecific antibody)
heavy: B2 chain 1 with M50W, M430L, N436S
scFv-Fc: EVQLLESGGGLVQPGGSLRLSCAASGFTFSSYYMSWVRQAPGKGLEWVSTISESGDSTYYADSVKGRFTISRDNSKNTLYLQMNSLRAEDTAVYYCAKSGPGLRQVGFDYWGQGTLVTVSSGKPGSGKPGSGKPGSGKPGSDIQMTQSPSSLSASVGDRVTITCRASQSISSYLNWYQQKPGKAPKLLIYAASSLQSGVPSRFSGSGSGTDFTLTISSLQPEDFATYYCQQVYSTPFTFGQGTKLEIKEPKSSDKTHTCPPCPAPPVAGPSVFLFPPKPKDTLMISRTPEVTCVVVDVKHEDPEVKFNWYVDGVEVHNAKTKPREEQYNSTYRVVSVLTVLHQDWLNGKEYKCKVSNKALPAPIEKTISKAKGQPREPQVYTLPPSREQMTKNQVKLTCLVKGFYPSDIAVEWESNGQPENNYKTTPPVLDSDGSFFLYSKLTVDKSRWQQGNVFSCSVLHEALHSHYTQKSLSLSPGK
light: B2 chain 3 with T31Q, Y92S
notes: also called XENP39569 MSLN (90 nM) x CD28 (37 nM) 1+1

EC50 (read off the curve) [4]: ~0.01 µg/mL | Kd [5]: 0.3 nM | EC50 (read off the curve) [6]: ~0.01 µg/mL | Kd [7]: 180 nM
B8: XENP39554 (bispecific antibody)
heavy: B2 chain 1 with M430L, N436S
scFv-Fc: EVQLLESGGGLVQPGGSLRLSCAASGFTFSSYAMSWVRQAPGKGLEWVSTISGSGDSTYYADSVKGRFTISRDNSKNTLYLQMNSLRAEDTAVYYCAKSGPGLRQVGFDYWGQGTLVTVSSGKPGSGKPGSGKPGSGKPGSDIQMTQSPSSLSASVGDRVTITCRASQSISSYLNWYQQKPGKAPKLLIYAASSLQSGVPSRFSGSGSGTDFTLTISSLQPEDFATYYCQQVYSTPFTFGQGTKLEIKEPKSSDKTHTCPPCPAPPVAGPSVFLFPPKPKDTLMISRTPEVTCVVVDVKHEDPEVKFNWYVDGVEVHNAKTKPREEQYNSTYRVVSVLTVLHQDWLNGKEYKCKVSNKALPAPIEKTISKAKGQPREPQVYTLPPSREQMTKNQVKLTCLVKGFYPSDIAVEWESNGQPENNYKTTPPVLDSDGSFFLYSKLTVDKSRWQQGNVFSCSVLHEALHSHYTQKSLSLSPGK
light: B2 chain 3 with Y92S
notes: also called XENP39554 MSLN (0.3 nM) x CD28 (180 nM) 1+1 Fab-scFv-Fc
